Laboratory results: paper PMC9579148 (European Journal of Medicinal Chemistry, 2022)
No end group written: not given here.

Assays:
[1] = target: recombinant SARS-CoV-2 M^pro (Proteros) (SARS-CoV-2); experiment: cell-based or functional assay
[2] = target: recombinant SARS-CoV-2 M^pro (Proteros) (SARS-CoV-2); experiment: FRET enzymatic inhibition assay

Binder	IC50 of inhibition of M^pro enzymatic activity (FRET substrate cleavage) [1]	Kd [2]
Ac-Gly-His-His-aldehyde (SMILES CC(=O)NCC(=O)N[C@@H](Cc1c[nH]cn1)C(=O)N[C@H](C=O)Cc1c[nH]cn1) [compound 5 (aldehydic tripeptide)]	> 213 µM	> 107 µM
Ac-Gly-His-Tyr-aldehyde (SMILES CC(=O)NCC(=O)N[C@@H](Cc1c[nH]cn1)C(=O)N[C@H](C=O)Cc1ccc(O)cc1) [compound 7 (aldehydic tripeptide)]	> 425 µM	> 213 µM
Pro-His-His-aldehyde [compound 9 (aldehydic tripeptide)]	> 170 µM	> 85 µM
Ac-Gly-Tyr-His-aldehyde (SMILES CC(=O)NCC(=O)N[C@@H](Cc1ccc(O)cc1)C(=O)N[C@H](C=O)Cc1c[nH]cn1) [compound 8 (aldehydic tripeptide)]	198 µM	98.9 ± 11.9 µM
